Assay [1] concerns the target BdhE (bifunctional dehydrogenase E) from Halomonas eurihalina (Halomonas eurihalina). Put plainly: cryo-EM structure; single particle analysis, 2.02 mg/mL AdhE or 1.35 mg/mL BdhE, no cofactors added, Talos Arctica 200 kV, CryoSPARC.
Assay [2] shares this target. Put plainly: native gel or EMSA; blue native PAGE, 3-14% polyacrylamide gradient, 150 V for ~75 minutes; purified AdhE 5 or 10 ug, BdhE 1 or 2 ug.

Experimental findings from PMC12454647 are described below.

On to “BdhE (bifunctional dehydrogenase E) from Halomonas eurihalina (enzyme)”, for which the stoichiometry N in assay [1] and in assay [2] was 4 each time.

As usually defined, the stoichiometry N is a count of units in the complex or per binding partner.
